Consider five substances from publication PMC7414181.

For test [1], the target named is CD4-Ig (UniProt P01730).
Test [2] concerns the target YU2wt gp120 (HIV-1 strain YU2) (UniProt P35961).
Test [3] concerns the target YU2_(E466K) gp120 (HIV-1 (strain YU2)).
Test [4] has as its target YU2_(G471R) gp120 (HIV-1 (strain YU2)).
Test [5] concerns the target YU2_(G458D) gp120 (HIV-1 (strain YU2)).
For test [6], the target named is YU2_(G366E) (HIV-1 (strain YU2)).
Test [7] addresses CD4-Ig (UniProt P01730). The experiment in a line: SPR; CD4-Ig captured on a protein A biosensor chip; monomeric gp120 proteins flowed over as a fourfold dilution series with a maximum concentration of 250 nM. Background: SPR reads the build-up and loss of mass on a sensor chip optically.

For YU2G458D gp120 (natural protein), in the test with CD4-Ig [1], the Kd (as a rule, the equilibrium constant for the complex coming apart) came to 6 nM; the koff (in general, a measure of how fast the partners let go of each other) worked out at 0.00121 s⁻¹; the kon (usually the rate constant with which the complex forms) is 200000 M⁻¹ s⁻¹.
In test [2], sCD4 D1D2 (domain or fragment) showed a Table S5: IC50 of sCD4 in the in vitro neutralisation of YU2wt pseudovirus on TZM-bl cells (blocks Env from CD4 on target cells) of 0.29 µg/mL. Besides, the neutralization of YU2 mutant pseudovirus by sCD4, TZM-bl assay, loss of sensitivity against YU2wt in test [3], in test [4], in test [5] and in test [6] was 30 fold throughout.
In the test with CD4-Ig [7], YU2_(G458D) gp120 (natural protein) registered a fold faster dissociation than YU2wt gp120 of 11 fold.
For YU2G471R gp120 (natural protein), in the test with CD4-Ig [1], the Kd came out at 1.6 nM, the koff was 0.00021 s⁻¹ and the kon is 140000 M⁻¹ s⁻¹.
In the same order, the values of YU2E466K gp120 (natural protein) are 1.7 nM, 0.00027 s⁻¹ and 160000 M⁻¹ s⁻¹.
